Results from patent US20080194482A1, “Selective Apac2 Receptor Peptide Agonists” (priority 2005, published 2008).
Square brackets hold non-standard residues; d marks the D form. Ends that are not written are not given here. * marks the point of attachment. Orn = NCCC[C@H](N)C(=O)O; Hexanoyl = CCCCCC(=O)*; Aib = CC(C)(N)C(=O)O

T1: human VPAC2 receptor (human, UniProt P41587 24-438)
T1 construct: whole, on cells; Stably expressed in a CHO-S cell line
T1 sequence (looked up): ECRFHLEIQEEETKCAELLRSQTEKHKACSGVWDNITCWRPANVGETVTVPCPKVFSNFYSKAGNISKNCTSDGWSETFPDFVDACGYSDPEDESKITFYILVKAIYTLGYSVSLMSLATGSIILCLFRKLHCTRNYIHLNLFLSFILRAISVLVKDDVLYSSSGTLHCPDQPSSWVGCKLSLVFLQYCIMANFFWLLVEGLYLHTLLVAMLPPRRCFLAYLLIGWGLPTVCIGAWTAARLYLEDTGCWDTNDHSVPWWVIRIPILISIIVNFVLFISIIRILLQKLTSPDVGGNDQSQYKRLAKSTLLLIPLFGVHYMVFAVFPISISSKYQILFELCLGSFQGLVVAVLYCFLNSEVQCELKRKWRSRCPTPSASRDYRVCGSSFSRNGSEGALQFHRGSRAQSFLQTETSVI

T2: rat VPAC1 receptor (rat, UniProt P30083 31-459)
T2 sequence (looked up): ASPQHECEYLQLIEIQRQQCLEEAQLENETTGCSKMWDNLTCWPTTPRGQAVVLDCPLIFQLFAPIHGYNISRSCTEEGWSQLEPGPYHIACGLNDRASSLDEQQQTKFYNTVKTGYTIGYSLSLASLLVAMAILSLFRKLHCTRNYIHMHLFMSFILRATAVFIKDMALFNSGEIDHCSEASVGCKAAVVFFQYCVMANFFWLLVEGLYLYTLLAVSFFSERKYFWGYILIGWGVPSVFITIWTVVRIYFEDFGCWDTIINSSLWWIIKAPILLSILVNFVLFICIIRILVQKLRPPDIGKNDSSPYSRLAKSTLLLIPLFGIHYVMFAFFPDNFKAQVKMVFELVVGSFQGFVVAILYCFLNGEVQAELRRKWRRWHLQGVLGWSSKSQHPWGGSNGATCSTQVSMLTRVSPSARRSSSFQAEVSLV

T3: rat VPAC2 receptor (rat, UniProt P35000 23-437)
T3 sequence (looked up): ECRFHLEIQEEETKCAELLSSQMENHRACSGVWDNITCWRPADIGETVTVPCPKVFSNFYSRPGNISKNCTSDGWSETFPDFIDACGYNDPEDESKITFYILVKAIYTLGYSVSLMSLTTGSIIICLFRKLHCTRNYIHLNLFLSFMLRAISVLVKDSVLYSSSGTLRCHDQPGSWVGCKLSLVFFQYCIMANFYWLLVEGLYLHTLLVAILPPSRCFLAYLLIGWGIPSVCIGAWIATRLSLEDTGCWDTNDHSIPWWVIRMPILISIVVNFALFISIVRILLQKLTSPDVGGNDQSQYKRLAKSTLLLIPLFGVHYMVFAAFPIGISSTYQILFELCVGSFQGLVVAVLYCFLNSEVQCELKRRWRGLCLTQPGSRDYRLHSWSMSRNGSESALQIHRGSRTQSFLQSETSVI


How the values were obtained:
[1] = Rat serum stability (activity remaining, CHO-VPAC2 DiscoveRx read-out); format: in vitro ADME
Description: The rat serum is stored at 4° C. until use and is used within two weeks. […] The aliquot is stored with aprotinin at 4° C. The aliquot is stored without aprotinin at 37° C. The aliquots are incubated overnight. […] The plate(s) are washed with cells twice in incubation buffer. The plates are allowed to hold 50 μL incubation media per well for 15 minutes. 50 μL solution per well is transferred to the cells from the plate prepared with 11 serial 5× dilutions of peptide for the 4° C. and 37° C. aliquot for each peptide studied, using the maximal concentrations that are indicated by the primary screen, in duplicate. This step dilutes the peptide concentration by a factor of two. The cells are incubated at room temperature for 30 minutes. […] The cells are incubated on the shaker (300 rpm) for 1 hour. Normal procedure with the DiscoveRx kit is followed. cAMP standards are included in column 12. EC50 values are determined from the cAMP assay data.

human VPAC2 receptor [2] = molecular target: T1, human VPAC2 receptor; assay: filter binding, human VPAC2 membranes, competition with 125I-VIP;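 also: assay plate incubated 1 h with shaking, then filtered, with filter-retained counts measured after adding scintillant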
Description: The filled plate is incubated for 1 hour with shaking.
The transfer from assay plate to filter plate is conducted. The blocking buffer is aspirated by vacuum filtration and washed two times with flush buffer. 90 μL is transferred from the assay plate to the filter plate. The 90 μL transferred from assay plate is aspirated and washed three times with 200 μL flush buffer. The plastic support is removed. It is dried for 1 hour at 60° C. 30 μL Microscint is added. The count is performed.

rat VPAC1 receptor = molecular target: T2, rat VPAC1 receptor; assay: cell-based or functional assay
rat VPAC2 receptor = molecular target: T3, rat VPAC2 receptor; assay: cell-based or functional assay
human VPAC2 receptor [3] = molecular target: T1, human VPAC2 receptor; assay: cell-based or functional assay

Molecule | Rat Serum Stability (estimated purity in % after overnight incub.) [1] | IC50 (human VPAC2 receptor [2]) | Rat VPAC1 Receptor: DiscoveRx (EC50; nM), cAMP generation (rat VPAC1 receptor) | Rat VPAC2 Receptor: DiscoveRx (EC50; nM), cAMP generation (rat VPAC2 receptor) | Human VPAC2 Receptor: Alpha Screen (EC50; nM), cAMP generation (human VPAC2 receptor [3])
CCCCCC(=O)N[C@@H](Cc1c[nH]cn1)C(=O)N[C@@H](CO)C(=O)N[C@@H](CC(=O)O)C(=O)N[C@@H](C)C(=O)N[C@H](C(=O)N[C@@H](Cc1ccccc1)C(=O)N[C@H](C(=O)N[C@@H](CC(=O)O)C(=O)N[C@@H](CC(N)=O)C(=O)N[C@@H](Cc1ccc(OC)cc1)C(=O)N[C@H](C(=O)N[C@@H](CCCNC(=N)N)C(=O)N[C@@H](CC(C)C)C(=O)N[C@@H](CCCNC(=N)N)C(=O)NC(C)(C)C(=O)N[C@@H](CCC(N)=O)C(=O)N[C@H](C(=O)N[C@@H](C)C(=O)N[C@@H](C)C(=O)NC(C)(C)C(=O)N[C@@H](CCCCN)C(=O)N[C@@H](Cc1ccc(O)cc1)C(=O)N[C@@H](CC(C)C)C(=O)N[C@@H](CCC(N)=O)C(=O)N[C@@H](CO)C(=O)N[C@H](C(=O)N[C@@H](CCCCN)C(=O)N[C@@H](CC(N)=O)C(=O)N[C@@H](CCCCN)C(=O)N[C@@H](CCCNC(=N)N)C(=O)N[C@@H](Cc1ccc(O)cc1)C(=O)NCC(=O)NCC(=O)N1CCC[C@H]1C(=O)N[C@@H](CO)C(=O)N[C@@H](CO)C(=O)NCC(=O)N[C@@H](C)C(=O)N1CCC[C@H]1C(=O)N1CCC[C@H]1C(=O)N1CCC[C@H]1C(=O)N[C@@H](CO)C(=O)O)[C@@H](C)CC)C(C)C)[C@@H](C)O)[C@@H](C)O)C(C)C [Agonist P358] | 13.43% | – | – | – | –
HSDAVFTDQYTXLRXQLAAXXYLQSIXXGGPSSGAPPPS (N-terminal hexanoyl (C6); Tyr(OMe) at 10; Orn at 12, 21, 27 and 28; Aib at 15 and 20) [VPAC2 receptor peptide agonist P394] | – | 0.41 nM | 0.48 nM | 0.03 nM | 0.11 nM
Hexanoyl-HSDAVFTDNYTRLLAKLALQKYLQSI[Orn]N[Orn]GGPSSGAPPPS [VPAC2 receptor peptide agonist P370] | – | 0.8 nM | 0.05 nM | 0.05 nM | 0.23 nM
HSDAVFTDNYTXLRXQVAAXKYLSSIXNXGGPSSGAPPPS (N-terminal hexanoyl (C6); Orn at 12, 27 and 29; Aib at 15 and 20) [VPAC2 receptor peptide agonist P383] | – | 5.01 nM | 1.68 nM | 0.18 nM | 0.12 nM
HSDAVFTDNYTXLRXQVSAXKYLQSIXNXGGPSSGAPPPS (N-terminal hexanoyl (C6); Orn at 12, 27 and 29; Aib at 15 and 20) [VPAC2 receptor peptide agonist P388] | – | 100 nM | > 2000 nM | 709 nM | 2760 nM
HSDAVFTDNYTXLRXQVAAXKYSQSIXNXGGPSSGAPPPS (N-terminal hexanoyl (C6); Orn at 12, 27 and 29; Aib at 15 and 20) [VPAC2 receptor peptide agonist P384] | – | 22.2 nM | > 600 nM | 8.05 nM | 6.7 nM
HSDAVFTDNYTXLRXQVAAXSYLQSIXNXGGPSSGAPPPS (N-terminal hexanoyl (C6); Orn at 12, 27 and 29; Aib at 15 and 20) [VPAC2 receptor peptide agonist P386] | – | 5.92 nM | 4.34 nM | 0.28 nM | 0.65 nM
Hexanoyl-HSDAVFTDNYT[Orn]SR[Aib]QVAA[Aib]KYLQSI[Orn]N[Orn]GGPSSGAPPPS [VPAC2 receptor peptide agonist P391] | – | 3.67 nM | 9.09 nM | 0.5 nM | 0.48 nM
HSDAVFTDNYTXLRXQVAAXKSLQSIXNXGGPSSGAPPPS (N-terminal hexanoyl (C6); Orn at 12, 27 and 29; Aib at 15 and 20) [VPAC2 receptor peptide agonist P385] | – | 99.2 nM | 96.8 nM | 28.8 nM | 23.9 nM
HSDAVFTDNYTXLRXQVASXKYLQSIXNXGGPSSGAPPPS (N-terminal hexanoyl (C6); Orn at 12, 27 and 29; Aib at 15 and 20) [VPAC2 receptor peptide agonist P387] | – | 1.39 nM | 20.4 nM | 0.4 nM | 0.47 nM
HSDAVFTDNYTXLRXQSAAXKYLQSIXNXGGPSSGAPPPS (N-terminal hexanoyl (C6); Orn at 12, 27 and 29; Aib at 15 and 20) [VPAC2 receptor peptide agonist P389] | – | 0.82 nM | 4.4 nM | 0.21 nM | 0.16 nM
Hexanoyl-HSDAVFTDNYTQLR[Aib]QVAA[Aib]KYLQSI[Orn]N[Orn]GGPSSGAPPPS [VPAC2 receptor peptide agonist P368] | – | 28.6 nM | 20.9 nM | 1.33 nM | 1.09 nM
Hexanoyl-HSDAVFTDNYTFLR[Aib]QVAA[Aib]KYLQSI[Orn]N[Orn]GGPSSGAPPPS [VPAC2 receptor peptide agonist P369] | – | 37.3 nM | 130 nM | 8.09 nM | 10.5 nM
